According to FireProtDB:
“And” between values parts separate entries of the source, which are not always exact repeats. Equal entries are not always repeated.

Conditions: whole UniProt chain shown; for Tm / heat capacity change of unfolding / unfolding enthalpy (calorimetric): Thermal
[1] = Homo sapiens, pH 7, 25 °C, Urea, CD, Tris-HCL, Nacl, transition: 2, reversible: yes
[2] = Homo sapiens, pH 7, 25 °C, Urea, Fluorescence, Tris-HCl, NaCl, transition: 2
[3] = Homo sapiens, pH 7, 25 °C, Urea, fluorescence, Tris-HCL, Nacl, transition: 2, reversible: yes
[4] = Homo sapiens, pH 6.5, 25 °C, Urea, CD, Sodium phosphate 20 mM, NaCl 100 mM
[5] = Homo sapiens, pH 2.2, 25 °C, GdnHCl, CD, Sodium cacodylate 50 mM, NaCl 50 mM
[6] = Homo sapiens, pH 8, 25 °C, GdnHCl, CD, Tris-HCl 20 mM
[7] = Hirudo medicinalis, pH 5.4, 25 °C, GdnHCl, CD, KH2PO4-NaOH 10 mM, reversible: yes
[8] = Homo sapiens, pH 5.3, DSC, acetate 20 mM
[9] = Homo sapiens, pH 7, 37 °C, GdnHCl, CD, Sodium phosphate 100 mM, reversible: Yes
[10] = Homo sapiens, pH 4, 25 °C, GdnHCl, CD, Tris sodium acetate MES 50 mM 20 mM 20 mM
[11] = Homo sapiens, pH 7, 25 °C, GdnHCl, CD, Tris sodium acetate MES 50 mM 20 mM 20 mM
[12] = Gallus gallus, pH 7, 25 °C, GdnHCl, Fluorescence, Phosphate 10 mM, NaCl 50 mM
[13] = Homo sapiens, pH 7, DSC, Tris-Maleate 0.02M, KCl 0.1 M, transition: 2, reversible: no
[14] = Homo sapiens, pH 7, DSC, Tris-Maleate / KCL 20000 / 100000, transition: 2, reversible: no

B1: Frataxin, mitochondrial wild type, Q16595 (protein)
chain: MWTLGRRAVAGLLASPSPAQAQTLTRVPRPAELAPLCGRRGLRTDIDATCTPRRASSNQRGLNQIWNVKKQSVYLMNLRKSGTLGHPGSLDETTYERLAEETLDSLAEFFEDLADKPYTFEDYDVSFGSGVLTVKLGGDLGTYVINKQTPNKQIWLSSPSSGPKRYDWTGKNWVYSHDGVSLHELLAAELTKALKTKLDLSSLAYSGKDA
- denaturant midpoint (higher = more stable) [1]: 4.92 M
- unfolding free energy [1]: 9 kcal/mol
- denaturant midpoint (higher = more stable) (Homo sapiens, pH 7, 25 °C, Urea, CD, Tris-HCl, NaCl, transition: 2): 4.92 M
- denaturant midpoint (higher = more stable) [2]: 4.94 M
- unfolding free energy [2]: 9.1 kcal/mol
- denaturant midpoint (higher = more stable) [3]: 4.94 M
- unfolding free energy [3]: 9.1 kcal/mol
- Tm (Homo sapiens, pH 7, CD, Sodium phosphate buffer, NaCl): 69.4 °C
- Tm (Homo sapiens, pH 7, CD, sodium phosphate, Nacl, transition: 2): 69.4 °C

B2: Glutathione S-transferase A1 wild type, P08263 (protein)
chain: MAEKPKLHYFNARGRMESTRWLLAAAGVEFEEKFIKSAEDLDKLRNDGYLMFQQVPMVEIDGMKLVQTRAILNYIASKYNLYGKDIKERALIDMYIEGIADLGEMILLLPVCPPEEKDAKLALIKEKIKNRYFPAFEKVLKSHGQDYLVGNKLSRADIHLVELLYYVEELDSSLISSFPLLKALKTRISNLPTVKKFLQPGSPRKPPMDEKSLEEARKIFRF
- denaturant m value [4]: 4.2 kcal/mol/M
- denaturant midpoint (higher = more stable) [4]: 4.6 M

B3: Alpha-lactalbumin wild type, P00709 (protein)
chain: MRFFVPLFLVGILFPAILAKQFTKCELSQLLKDIDGYGGIALPELICTMFHTSGYDTQAIVENNESTEYGLFQISNKLWCKSSQVPQSRNICDISCDKFLDDDITDDIMCAKKILDIKGIDYWLAHKALCTEKLEQWLCEKL
- denaturant m value [5]: 0.95 kcal/mol/M
- denaturant midpoint (higher = more stable) [5]: 4.67 M
- unfolding free energy [5]: 4.45 kcal/mol
- heat capacity change of unfolding (Homo sapiens, pH 7, CD, Sodium cacodylate 50 mM, NaCl 50 mM, reversible: yes): 1.1 kcal/mol/K
- unfolding free energy (Homo sapiens, pH 7.3, 25 °C, GdnHCl, CD, Tris-HCl 0.05 M, reversible: yes): 6.8 kcal/mol
- denaturant m value [6]: 0.85 kcal/mol/M
- denaturant midpoint (higher = more stable) [6]: 3.09 M
- unfolding free energy [6]: 2.63 kcal/mol

B4: Eglin C wild type, P01051 (protein)
chain: TEFGSELKSFPEVVGKTVDQAREYFTLHYPQYDVYFLPEGSPVTLDLRYNRVRVFYNPGTNVVNHVPHVG
- denaturant m value [7]: 3.87 kcal/mol/M
- unfolding free energy [7]: 6.5 kcal/mol

B5: Cystatin-B wild type, P04080 (protein)
chain: MMCGAPSATQPATAETQHIADQVRSQLEEKENKKFPVFKAVSFKSQVVAGTNYFIKVHVGDEDFVHLRVFQSLPHENKPLTLSNYQTNKAKHDELTYF
- Tm [8]: 50.2 °C
- heat capacity change of unfolding [8]: 1.6 kcal/mol/K
- unfolding enthalpy (calorimetric) [8]: 70 kcal/mol

B6: Gamma-crystallin S wild type, P22914 (protein)
chain: MSKTGTKITFYEDKNFQGRRYDCDCDCADFHTYLSRCNSIKVEGGTWAVYERPNFAGYMYILPQGEYPEYQRWMGLNDRLSSCRAVHLPSGGQYKIQIFEKGDFSGQMYETTEDCPSIMEQFHMREIHSCKVLEGVWIFYELPNYRGRQYLLDKKEYRKPIDWGAASPAVQSFRRIVE
- denaturant m value [9]: 4.6 kcal/mol/M and 2.9 kcal/mol/M
- denaturant midpoint (higher = more stable) [9]: 2.3 M and 1.7 M
- unfolding free energy [9]: 10.5 kcal/mol and 4.9 kcal/mol
- Tm (Homo sapiens, pH 7.4, Fluorescence, Disodium phosphate, NaCl): 67.5 °C and 65.8 °C

B7: Interleukin-2 wild type, Q7Z7M3 (protein)
chain: MPTSSSTKKTQLQLEHLLLDLQMILNGINNYKNPKLTRMLTFKFYMPKKATELKHLQCLEEELKPLKEVLNLAQSKNFHLRPRDLISNINVIVLELKGSETTFMCEYADETATIVEFLNRWITFSQSIISTLT
- denaturant midpoint (higher = more stable) [10]: 4.4 M
- unfolding free energy [10]: 9.9 kcal/mol
- denaturant midpoint (higher = more stable) [11]: 3.8 M
- unfolding free energy [11]: 9.3 kcal/mol

B8: Riboflavin-binding protein wild type, P02752 (protein)
chain: MLRFAITLFAVITSSTCQQYGCLEGDTHKANPSPEPNMHECTLYSESSCCYANFTEQLAHSPIIKVSNSYWNRCGQLSKSCEDFTKKIECFYRCSPHAARWIDPRYTAAIQSVPLCQSFCDDWYEACKDDSICAHNWLTDWERDESGENHCKSKCVPYSEMYANGTDMCQSMWGESFKVSESSCLCLQMNKKDMVAIKHLLSESSEESSSMSSSEEHACQKKLLKFEALQQEEGEERR
- denaturant m value [12]: 4.14 kcal/mol/M
- unfolding free energy [12]: 2.78 kcal/mol

B9: Matrilysin wild type, P09237 (protein)
chain: MRLTVLCAVCLLPGSLALPLPQEAGGMSELQWEQAQDYLKRFYLYDSETKNANSLEAKLKEMQKFFGLPITGMLNSRVIEIMQKPRCGVPDVAEYSLFPNSPKWTSKVVTYRIVSYTRDLPHITVDRLVSKALNMWGKEIPLHFRKVVWGTADIMIGFARGAHGDSYPFDGPGNTLAHAFAPGTGLGGDAHFDEDERWTDGSSLGINFLYAATHELGHSLGMGHSSDPNAVMYPTYGNGDPQNFKLSQDDIKGIQKLYGKRSNSRKK
- Tm [13]: 98.3 °C
- unfolding enthalpy (calorimetric) [13]: 13.7 kcal/mol
- Tm [14]: 98.3 °C
- unfolding enthalpy (calorimetric) [14]: 13.8 kcal/mol

B10: Ovalbumin wild type, P01012 (protein)
chain: MGSIGAASMEFCFDVFKELKVHHANENIFYCPIAIMSALAMVYLGAKDSTRTQINKVVRFDKLPGFGDSIEAQCGTSVNVHSSLRDILNQITKPNDVYSFSLASRLYAEERYPILPEYLQCVKELYRGGLEPINFQTAADQARELINSWVESQTNGIIRNVLQPSSVDSQTAMVLVNAIVFKGLWEKAFKDEDTQAMPFRVTEQESKPVQMMYQIGLFRVASMASEKMKILELPFASGTMSMLVLLPDEVSGLEQLESIINFEKLTEWTSSNVMEERKIKVYLPRMKMEEKYNLTSVLMAMGITDVFSSSANLSGISSAESLKISQAVHAAHAEINEAGREVVGSAEAGVDAASVSEEFRADHPFLFCIKHIATNAVLFFGRCVSP
- Tm (Gallus gallus, pH 6, DSC, Na-phosphate): 72.4 °C
- Tm (Gallus gallus, pH 7, DSC, Phosphate, transition: 3, reversible: No): 82.5 °C
- Tm (Gallus gallus, pH 7, DSC, Unknown, transition: 3, reversible: No): 78.4 °C
